Data on three molecules can be found in patent US20200207854A1 (SYNTIMMUNE, published 2020).

The target of experiment [1] is monomeric His-tagged human FcRn (JTA), produced in-house (human) (UniProt P55899). Kind of experiment: SPR, IgG amine-coupled, monomeric His-hFcRn injected, pH 6.0; second value (steady-state affinity model by the footnote). (In SPR one partner is held on a chip, and binding of the other changes the refractive index at the surface.)
The target is the same in experiment [2]. Kind of experiment: SPR, IgG amine-coupled, monomeric His-hFcRn injected, pH 6.0; first of two values in the cell.
For experiment [3] the target is unchanged. Kind of experiment: SPR, IgG amine-coupled, monomeric His-hFcRn injected, 1:1 Langmuir, pH 6.0.
Experiment [4] has as its target T1, recombinant human FcRn (Sino Biological Inc. Cat. No. CT009-H08H) (human, UniProt P55899 24-297; P61769 21-119).
T1 construct: Bought protein; also called immobilized FcRn; hFcRn (SINO)
The experiment is described as follows: competition ELISA vs biotinylated parent murine antibody, captured FcRn, pH 6.0. On the technique in general: In an ELISA, binding on a coated surface is turned into a signal by an enzyme label.
Experimental: (§1) The following day, 1 μg/ml recombinant human FcRn (Sino Biological Inc. cat. no. CT009-H08H) diluted in PBS pH 7.4 was added to the wells and incubated for 1 hour at 37° C. After washing the plates 3× with PBST pH 7.4, the plates were blocked with PBSM pH 7.4 for 1 hour at 37° C. From this point onwards, all wash and incubation steps were performed at the chosen assay pH (pH 6.0 or 7.4).
(§2) Additional combinations of humanized affinity matured heavy chains and humanized affinity matured light chains were tested in the competition ELISA. Combinations of humanized affinity matured heavy chains and humanized non-affinity matured light chains also were tested.

For experiment [5], the target named is T1, recombinant human FcRn (Sino Biological …). Kind of experiment: competition ELISA vs biotinylated human serum IgG, captured FcRn, pH 6.0.
Experimental: The following day, 0.5 μg/ml recombinant human FcRn (Sino Biological Inc. cat. no. CT009-H08H) diluted in PBS pH 7.4 was added to the wells and incubated for one hour at 37° C. After washing the plates 3× with PBST pH 7.4, the plates were blocked with PBSM pH 7.4 for one hour at 37° C. From this point onwards, all wash and incubation steps were performed at assay pH 6.0.
Experiment [6] shares this target. The experiment is described as follows: competition ELISA vs biotinylated parent murine antibody, captured FcRn, pH 7.4.
Experimental: as §1, §2

Chain of monomeric His-tagged human FcRn (JTA), produced in-house (human) (P55899 24-297 limits assumed, chain 1 of 2): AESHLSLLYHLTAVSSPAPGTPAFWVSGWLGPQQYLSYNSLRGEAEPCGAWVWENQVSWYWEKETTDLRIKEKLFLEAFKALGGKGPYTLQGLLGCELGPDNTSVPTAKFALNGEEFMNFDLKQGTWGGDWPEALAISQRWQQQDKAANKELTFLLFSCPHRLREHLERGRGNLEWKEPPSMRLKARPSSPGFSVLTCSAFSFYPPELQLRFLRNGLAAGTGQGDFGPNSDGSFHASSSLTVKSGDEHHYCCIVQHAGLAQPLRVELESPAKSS
Chain of monomeric His-tagged human FcRn (JTA), produced in-house (human) (P61769 21-119 limits assumed, chain 2 of 2, further chain): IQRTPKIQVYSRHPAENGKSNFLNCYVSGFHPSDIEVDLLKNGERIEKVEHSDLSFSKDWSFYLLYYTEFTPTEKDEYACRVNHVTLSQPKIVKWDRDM
T1 sequence (P55899 24-297 limits assumed, chain 1 of 2): as the sequence (P55899 24-297 limits assumed, chain 1 of 2) above
T1 sequence (P61769 21-119 limits assumed, chain 2 of 2): as the sequence (P61769 21-119 limits assumed, chain 2 of 2, further chain) above

Consider human IgG1 (antibody), for which the Kd is 1250 nM in experiment [1] and 763 nM in experiment [2]. The same molecule returned an off-rate constant (koff) in experiment [3] of 0.0824 s⁻¹. The same molecule showed a kon in experiment [3] of 108000 M⁻¹ s⁻¹.

Turning to human IgG4 (antibody), the figures for the Kd in experiment [1] and in experiment [2] were 970 nM and 1010 nM, respectively.

B1: VH1_A8/Vκ1 IgG4 (antibody, V domains shown)
VH: QVQLVQSGAELKKPGASVKLSCKASGYTFTSYGISWVKQATGQGLEWIGEIYPRSGNTYYNEKFKGRATLTADKSTSTAYMELRSLKSEDSAVYFCARSTTVSPPAHWGTGTTVTVSS
VL: DIQMTQSPSYLSASVGDRVTITCKASDHINNWLAWYQQKPGQAPRLLISGATSLETGVPSRFSGSGTGKDYTLTISSLQTEDFATYYCQQYWSTPYTFGGGTKVEIK
notes: Human IgG4, kappa
For B1, the “average relative IC50” value in experiment [4] is 0.87 relative to chimeric parent murine antibody; in experiment [5], 0.53 relative to parent murine antibody; in experiment [6], 0.89 relative to chimeric parent murine antibody.

What is called Kd is the equilibrium constant for the complex coming apart. As usually defined, the koff is the rate constant with which the complex falls apart. A low value points to a long-lived complex. One may read the kon as the rate constant with which the complex forms.
